The source of these data is article PMC3229578, “Brachyury and Related Tbx Proteins Interact with the Mixl1 Homeodomain Protein and Negatively Regulate Mixl1 Transcriptional Activity” (PLoS ONE, 2011).

Common to all, as to experiment: pull-down; bacterially made, purified His-Brachyury derivatives incubated with GST-Mixl1 derivatives or GST alone on glutathione beads in ELB150 buffer, 4°C, 3 h; washed in ELB300 (0.3 M KCl); Western blot with anti-T N19
What all share (conditions): both partners purified
In general terms: Immunoblotting shows a protein as a band on a membrane.

In experiment [1] the target is T1, His-hBrachyury (human, UniProt O15178 1-435).
T1 construct: Brachyury (T), human; in pET15b by Gateway cloning; also called hT; pET15b-hBrachyury; source: E. coli BL21 RIPL(DE3), purified (Talon resin)
T1 sequence (looked up): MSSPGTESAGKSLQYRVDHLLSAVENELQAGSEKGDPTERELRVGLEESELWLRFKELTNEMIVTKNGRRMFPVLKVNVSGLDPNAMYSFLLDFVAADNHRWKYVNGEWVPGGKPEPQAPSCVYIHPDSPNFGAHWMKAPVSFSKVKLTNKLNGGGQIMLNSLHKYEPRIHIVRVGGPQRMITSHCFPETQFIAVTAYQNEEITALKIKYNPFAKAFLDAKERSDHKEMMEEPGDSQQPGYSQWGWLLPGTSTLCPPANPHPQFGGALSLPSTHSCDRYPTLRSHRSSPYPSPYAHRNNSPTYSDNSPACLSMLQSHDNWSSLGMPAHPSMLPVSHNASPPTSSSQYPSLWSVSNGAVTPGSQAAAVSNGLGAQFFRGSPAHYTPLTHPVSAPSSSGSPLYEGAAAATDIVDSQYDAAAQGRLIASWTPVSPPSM

Experiment [2] has as its target T2, His-mBrachyury (mouse, UniProt P20293 1-436).
T2 construct: Brachyury (T), mouse; in pET15b by Gateway cloning; also called mT; recombinant His-tagged T protein; source: E. coli BL21 RIPL(DE3), purified (Talon resin)
T2 sequence (looked up): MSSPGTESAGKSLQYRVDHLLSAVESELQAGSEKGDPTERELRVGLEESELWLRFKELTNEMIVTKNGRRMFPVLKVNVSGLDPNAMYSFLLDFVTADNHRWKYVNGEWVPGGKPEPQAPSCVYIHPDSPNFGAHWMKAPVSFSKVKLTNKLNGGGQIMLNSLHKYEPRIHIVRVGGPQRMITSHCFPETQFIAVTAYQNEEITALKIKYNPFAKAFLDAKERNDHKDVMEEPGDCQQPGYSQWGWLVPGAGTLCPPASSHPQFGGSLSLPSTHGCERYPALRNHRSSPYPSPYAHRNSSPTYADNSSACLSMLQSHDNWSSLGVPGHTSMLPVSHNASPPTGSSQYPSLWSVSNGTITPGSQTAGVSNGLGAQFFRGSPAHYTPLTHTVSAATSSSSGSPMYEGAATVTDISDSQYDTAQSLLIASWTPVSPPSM

In experiment [3] the target is T3, His mT-box (mouse, UniProt P20293 1-230).
T3 construct: Brachyury (T), mouse, T-box domain aa 1-230; also called His-Brachyury T-box domain; T-box domain (aa 1–230) of Brachyury; source: E. coli BL21 RIPL(DE3), purified (Talon resin)
T3 sequence (looked up): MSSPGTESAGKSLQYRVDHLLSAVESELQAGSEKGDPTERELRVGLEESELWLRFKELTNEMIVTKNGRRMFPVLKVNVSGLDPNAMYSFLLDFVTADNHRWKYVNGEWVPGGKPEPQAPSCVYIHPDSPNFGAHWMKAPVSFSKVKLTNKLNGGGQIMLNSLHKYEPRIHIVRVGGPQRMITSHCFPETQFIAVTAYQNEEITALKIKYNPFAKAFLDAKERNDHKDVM

B1: GST-hMixl1 (natural protein)
chain: not shown
notes: MIXL1, the human ortholog of Mixl1; in pGEX2T by Gateway cloning; also called pGEX-hMixl1; source: E. coli BL21 RIPL(DE3), purified (glutathione agarose)
Turning to B1, the binding result in experiment [1] is “binds”.

B2: GST-mMixl1 (bacterial) (natural protein)
chain: not shown
notes: Mixl1 homeodomain protein, mouse; in pGEX2T by Gateway cloning; also called recombinant GST mMixl1; pGEX-mMixl1; source: E. coli BL21 RIPL(DE3), purified (glutathione agarose)
In the case of B2, in experiment [2], the binding result is recorded as “binds”.

B3: GST mMixl1 HD (domain or fragment)
chain: not shown
notes: Made as one of the 'GST-Mixl1 derivatives' of the methods; source: E. coli BL21 RIPL(DE3), purified (glutathione agarose)
On to B3, for which the binding result in experiment [3] is reported as “binds”.
